Biological target: T1, LvaB (untagged)
T1 chain: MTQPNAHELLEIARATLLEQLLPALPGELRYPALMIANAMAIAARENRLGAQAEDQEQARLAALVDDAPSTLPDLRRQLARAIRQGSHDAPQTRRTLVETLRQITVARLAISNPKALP

B1: MBP-LvaA (LvaA N-terminally tagged with maltose binding protein) (protein)
chain: MSSSPTISPASDTFAAMTDDHRLAEFIREQASATRVVIQARKRLSGGAIQENWLLDLLIEGGPWAGVRRWVLRSDALSALPASLDREQEFAVLQVVYQAGVKVPRPLWLCRDVRVHGRVFFLMEYVPGSAAGRALSTGAGPQGRAQLATQLGANLARLHQVRPPCATLCFLSVPDSSPALATIDAYRRYLDTLADAYPVLEWGLRWCELHAPRSSTLCLLHRDYRTGNYLASEEGLEAVLDWEFTGWGDPCEDLGWFTARCWRFTRPDLEAGGIGQLEDFLRGYHEVSSLCIERSRLHYWQVMATLRWAVIALQQGQRHLSGEEPSLELALTARLLPELELDILHMTGAEAP
- abundance of CoA species by LC/MS in in vitro enzyme reactions (4HV-CoA to 4PV-CoA): A decrease of 4HV-CoA and an increase of the predicted 4PV-CoA intermediate was seen only when all four of the enzymes were present
